B1: IpaA 483-633 (A483) (other)
chain: GDTYLTRETIFEASKKVTNSLSNLISLIGTKSGTQERELQEKSKDITKSTTEHRINNKLKVTDANIRNYVTETNADTIDKNHAIYEKAKEVSSALSKVLSKIDDTSAELLTDDISDLKNNNDITAENNNIYKAAKDVTTSLSKVLKNINKD
B2: full-length human vinculin (HV) (other)
chain: MPVFHTRTIESILEPVAQQISHLVIMHEEGEVDGKAIPDLTAPVAAVQAAVSNLVRVGKETVQTTEDQILKRDMPPAFIKVENACTKLVQAAQMLQSDPYSVPARDYLIDGSRGILSGTSDLLLTFDEAEVRKIIRVCKGILEYLTVAEVVETMEDLVTYTKNLGPGMTKMAKMIDERQQELTHQEHRVMLVNSMNTVKELLPVLISAMKIFVTTKNSKNQGIEEALKNRNFTVEKMSAEINEIIRVLQLTSWDEDAWASKDTEAMKRALASIDSKLNQAKGWLRDPSASPGDAGEQAIRQILDEAGKVGELCAGKERREILGTCKMLGQMTDQVADLRARGQGSSPVAMQKAQQVSQGLDVLTAKVENAARKLEAMTNSKQSIAKKIDAAQNWLADPNGGPEGEEQIRGALAEARKIAELCDDPKERDDILRSLGEISALTSKLADLRRQGKGDSPEARALAKQVATALQNLQTKTNRAVANSRPAKAAVHLEGKIEQAQRWIDNPTVDDRGVGQAAIRGLVAEGHRLANVMMGPYRQDLLAKCDRVDQLTAQLADLAARGEGESPQARALASQLQDSLKDLKARMQEAMTQEVSDVFSDTTTPIKLLAVAATAPPDAPNREEVFDERAANFENHSGKLGATAEKAAAVGTANKSTVEGIQASVKTARELTPQVVSAARILLRNPGNQAAYEHFETMKNQWIDNVEKMTGLVDEAIDTKSLLDASEEAIKKDLDKCKVAMANIQPQMLVAGATSIARRANRILLVAKREVENSEDPKFREAVKAASDELSKTISPMVMDAKAVAGNISDPGLQKSFLDSGYRILGAVAKVREAFQPQEPDFPPPPPDLEQLRLTDELAPPKPPLPEGEVPPPRPPPPEEKDEEFPEQKAGEVINQPMMMAARQLHDEARKWSSKGNDIIAAAKRMALLMAEMSRLVRGGSGTKRALIQCAKDIAKASDEVTRLAKEVAKQCTDKRIRTNLLQVCERIPTISTQLKILSTVKATMLGRTNISDEESEQATEMLVHNAQNLMQSVKETVREAEAASIKIRTDAGFTLRWVRKTPWYQ
B3: IpaA 524-633 (A524) (other)
chain: KSKDITKSTTEHRINNKLKVTDANIRNYVTETNADTIDKNHAIYEKAKEVSSALSKVLSKIDDTSAELLTDDISDLKNNNDITAENNNIYKAAKDVTTSLSKVLKNINKD
B4: vinculin D1 domain (HVD1) (other)
chain: MPVFHTRTIESILEPVAQQISHLVIMHEEGEVDGKAIPDLTAPVAAVQAAVSNLVRVGKETVQTTEDQILKRDMPPAFIKVENACTKLVQAAQMLQSDPYSVPARDYLIDGSRGILSGTSDLLLTFDEAEVRKIIRVCKGILEYLTVAEVVETMEDLVTYTKNLGPGMTKMAKMIDERQQELTHQEHRVMLVNSMNTVKELLPVLISAMKIFVTTKNSKNQGIEEALKNRNFTVEKMSAEINEIIRVLQLTSWDEDAW
notes: also called D1 domain of vinculin

Assays:
[1] = target: B2; assay: solid phase (ELISA) assay, HV coated, A483 in solution
[2] = target: B4; assay: solid phase (ELISA) assay, HVD1 coated, A483 in solution
[3] = target: B4; assay: size exclusion chromatography; stoichiometry listed for the complex
IpaA 483-633 (A483) = target: B1; assay: solid phase (ELISA) assay, A483 coated, HV in solution
IpaA 524-633 (A524) = target: B3; assay: solid phase (ELISA) assay, A524 coated, HV in solution
[4] = target: B2; assay: solid phase (ELISA) assay, HV coated, A524 in solution
talin H1-H4 = target: T1, talin H1-H4; assay: size exclusion chromatography; stoichiometry listed for the complex
T1 construct: domain: H1-H4; also called TlnH1-H4; T1nH1-H4
T1 sequence (P26039 482-636): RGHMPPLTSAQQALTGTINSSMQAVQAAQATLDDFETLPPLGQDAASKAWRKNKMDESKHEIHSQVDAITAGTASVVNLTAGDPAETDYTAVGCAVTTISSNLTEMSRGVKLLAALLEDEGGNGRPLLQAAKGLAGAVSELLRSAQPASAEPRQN

B1
EC50 (read off the curve) [1]: 0.2 to 0.3 nM | EC50 (read off the curve) [2]: ~0.8 nM | stoichiometry [3]: 1 molar ratio of the complex (1:1)

B2
EC50 (read off the curve) (IpaA 483-633 (A483)): ~5 nM | EC50 (read off the curve) (IpaA 524-633 (A524)): ~4 nM

B3
EC50 (read off the curve) [4]: ~0.3 nM

B4
stoichiometry (talin H1-H4): 1 molar ratio of the complex (1:1)

Reference: US20180264072A1 (PARIS SCIENCES ET LETTRES QUARTER LATIN, published 2018)
